Test results published in PMC9312489, “Tertiary and Quaternary Structure Organization in GMP Synthetases: Implications for Catalysis” (Biomolecules, 2022).
Residue numbers refer to the chain shown, from its start. Names and notes keep the numbering of the source.

Target: the molecule itself
Assay: SAXS; samples in solution at ~12 mg/mL, beamline BM29 (ESRF), ATSAS analysis, ab initio shapes

B1: Native Plasmodium falciparum GMP synthetase (PfGMPSwt) (enzyme, UniProt Q8IJR9 1-555, looked up)
chain: MEGEEYDKILVLNFGSQYFHLIVKRLNNIKIFSETKDYGVELKDIKDMNIKGVILSGGPYSVTEAGSPHLKKEVFEYFLEKKIPIFGICYGMQEIAVQMNGEVKKSKTSEYGCTDVNILRNDNINNITYCRNFGDSSSAMDLYSNYKLMNETCCLFENIKSDITTVWMNHNDEVTKIPENFYLVSSSENCLICSIYNKEYNIYGVQYHPEVYESLDGELMFYNFAYNICKCKKQFDPIRYHELELKNIEKYKHDHYVIAAMSGGIDSTVAAAYTHKIFKERFFGIFIDNGLLRKNEAENVYTFLKSTFPDMNITKIDASENFLSNLQGVTDPEQKRKIIGKLFIEEFEKAVNNIDIDINKTFLLQGTLYPDIIESKCSKNLSDTIKTHHNVGGLPKNLKFKLFEPFKYLFKDDVKTLSRELNLPEEITNRHPFPGPGLAIRVIGEINKHKLNILREVDDIFINDLKQYGLYNQISQAFAVLLSSKSVGVRGDARSYDYVCVLRAVKTSSFMTANWYQIPYDILDKITTRILSEVKGVNRILYDVSSKPPATIEFE
notes: GMP synthetase of Plasmodium falciparum, native gene PF10_0123 (PlasmoDB); also called native enzyme; wild-type enzyme; source: E. coli (pQE30PfGMPS construct), purified (HisTrap HP, Superdex 200 SEC)
In the case of B1, the “stoichiometry N” value is reported as 2.

B2: PfGMPS_C89A (enzyme)
chain: B1 chain with C89A
notes: GMP synthetase of Plasmodium falciparum (PF10_0123) with the catalytic Cys89 of the GATase domain mutated to alanine; made with pETPfGMPS as template; this is a point mutant made on the plasmid pETPfGMPS; also called C89A single mutant; single mutant enzyme; source: E. coli BL21-CodonPlus(DE3)-RIL (pETPfGMPS mutant construct), purified (HisTrap HP, Superdex 200 SEC)
For B2, the “stoichiometry N” value was 2.
